According to the supplement of paper PMC10567573:

B1: ZNF263 (parent)
chain: QRTHTGEKPYKCPECGEIFAHSSN

Variants of: B1
Assay: protein stability index of a GFP-peptide fusion (GPS, HEK-293T) (PSI 1-6); higher = more stable
Settings: c terminus: a fixed tail appended
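Note: lentivirally expressed fusions sorted by FACS into six bins by GFP to DsRed ratio, PSI derived from sequencing read proportions per bin multiplied by bin number.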

Variant	protein stability index
QRTHTGEKPYKCPECGEIFRHSSN [A20R]	2.93
QRTHTGEKPYKCPECGEIFVHSSN [A20V]	3.04
QRTHTGEKPYKCPECGEIFDHSSN [A20D]	3.67
QRTHTGEKPYKCPECGEIFMHSSN [A20M]	3.25
QRTHTGEKPYKCPECGEIFCHSSN [A20C]	3.75
QRTHTGEKPYKCPECGIIFAHSSN [E17I]	2.85
QRTHTGEKPYKCPECGDIFAHSSN [E17D]	3.13
QRTHTGEKPYKCPECGYIFAHSSN [E17Y]	4.23
QRTHTGEKPYKCPECGHIFAHSSN [E17H]	4.49
QRTHTGEKPYKCPECGCIFAHSSN [E17C]	4.6
QRTHTGEKPYKCPECGVIFAHSSN [E17V]	2.6
QRTHTGEKPYKCPECGSIFAHSSN [E17S]	4.02
QRTHTGEKPYKCPECGWIFAHSSN [E17W]	3.01
QRTHTGEKPYKCPECGNIFAHSSN [E17N]	3.83
QRTHTGEKPYKCPECGRIFAHSSN [E17R]	3.38
QRTHTGEKPYKCPECGEWFAHSSN [I18W]	2.41
QRTHTGEKPYKCPECGEDFAHSSN [I18D]	3.52
QRTHTGEKPYKCPECGEMFAHSSN [I18M]	3.73
QRTHTGEKPYKCPECGESFAHSSN [I18S]	2.53
QRTHTGEKPYKCPECGELFAHSSN [I18L]	3.18
QRTHTGEKPYKCPECGETFAHSSN [I18T]	3.9
QRTHTGEKPYKCPECGEEFAHSSN [I18E]	3.99
QRTHTGEKPYKCPECGEQFAHSSN [I18Q]	3.91
QRTHTGEKPYKCPECGEGFAHSSN [I18G]	4.05

Variant	protein stability index
QRTHTGEKPYKCPECGEYFAHSSN [I18Y]	3.48
QRGHTGEKPYKCPECGEIFAHSSN [T3G]	4.28
QREHTGEKPYKCPECGEIFAHSSN [T3E]	3.51
QRFHTGEKPYKCPECGEIFAHSSN [T3F]	2.67
QRNHTGEKPYKCPECGEIFAHSSN [T3N]	3.79
QRSHTGEKPYKCPECGEIFAHSSN [T3S]	3.43
QRDHTGEKPYKCPECGEIFAHSSN [T3D]	3.5
QRQHTGEKPYKCPECGEIFAHSSN [T3Q]	2.86
QRIHTGEKPYKCPECGEIFAHSSN [T3I]	2.93
QRMHTGEKPYKCPECGEIFAHSSN [T3M]	3.43
QRHHTGEKPYKCPECGEIFAHSSN [T3H]	3.51
QRTHTGEKPYKCPEYGEIFAHSSN [C15Y]	3.68
QRTHTGEKPYKCPEFGEIFAHSSN [C15F]	3.39
QRTHTGEKPYKCPEEGEIFAHSSN [C15E]	4.82
QRTHTGEKPYKCPEIGEIFAHSSN [C15I]	4.04
QRTHTGEKPYKCPEPGEIFAHSSN [C15P]	4.51
QRTHTGEKPYKCPEMGEIFAHSSN [C15M]	4.88
QRTHTGEKPYKCPENGEIFAHSSN [C15N]	4.76
QRTHTGEKPYKCPEAGEIFAHSSN [C15A]	4.3
QRTHTTEKPYKCPECGEIFAHSSN [G6T]	3.34
QRTHTPEKPYKCPECGEIFAHSSN [G6P]	3.23
QRTHTKEKPYKCPECGEIFAHSSN [G6K]	3.18
QRTHTIEKPYKCPECGEIFAHSSN [G6I]	2.98
QRTHTYEKPYKCPECGEIFAHSSN [G6Y]	2.64

Variant	protein stability index
QRTHTVEKPYKCPECGEIFAHSSN [G6V]	2.79
QRTHTGEQPYKCPECGEIFAHSSN [K8Q]	3.38
QRTHTGEFPYKCPECGEIFAHSSN [K8F]	2.89
QRTHTGEAPYKCPECGEIFAHSSN [K8A]	3.31
QRTHTGEIPYKCPECGEIFAHSSN [K8I]	2.66
QRTHTGEGPYKCPECGEIFAHSSN [K8G]	3.81
QRTHTGELPYKCPECGEIFAHSSN [K8L]	3.41
QRTHTGEVPYKCPECGEIFAHSSN [K8V]	3
QRTHTGEHPYKCPECGEIFAHSSN [K8H]	3.35
QRTHTGEMPYKCPECGEIFAHSSN [K8M]	3.4
QRTHTGEDPYKCPECGEIFAHSSN [K8D]	3.3
QRTHTGEKPYKCPECGEINAHSSN [F19N]	4.37
QRTHTGEKPYKCPECGEIVAHSSN [F19V]	3.46
QRTHTGEKPYKCPECGEIWAHSSN [F19W]	2.47
QRTHTGEKPYKCPECGEIIAHSSN [F19I]	3.37
QRTHTGEKPYKCPECGEITAHSSN [F19T]	4.1
QRTHTGEKPYKCPECGEIPAHSSN [F19P]	3.75
QRTHTGEKPYKCPECGEILAHSSN [F19L]	3.16
QRTHTGEKPYKCPECGEIKAHSSN [F19K]	4.08
QRTITGEKPYKCPECGEIFAHSSN [H4I]	3.01
QRTDTGEKPYKCPECGEIFAHSSN [H4D]	3.98
QRTSTGEKPYKCPECGEIFAHSSN [H4S]	3.7
QRTQTGEKPYKCPECGEIFAHSSN [H4Q]	3.52
QRTTTGEKPYKCPECGEIFAHSSN [H4T]	3.02

Variant	protein stability index
QRTGTGEKPYKCPECGEIFAHSSN [H4G]	3.25
QRTCTGEKPYKCPECGEIFAHSSN [H4C]	3.29
QRTPTGEKPYKCPECGEIFAHSSN [H4P]	3.27
QRTHTGEKPYKCPECGEIFAHSYN [S23Y]	2.73
QRTHTGEKPYKCPECGEIFAHSTN [S23T]	3.14
QRTHTGEKPYKCPECGEIFAHSPN [S23P]	2.72
QRTHTGEKPYKCPECGEIFAHSNN [S23N]	3.34
QRTHTGEKPYKCPECGEIFAHSLN [S23L]	2.75
QRTHTGEKPYKCPECGEIFAHSEN [S23E]	4.67
QVTHTGEKPYKCPECGEIFAHSSN [R2V]	2.88
QHTHTGEKPYKCPECGEIFAHSSN [R2H]	4.35
QFTHTGEKPYKCPECGEIFAHSSN [R2F]	2.82
QATHTGEKPYKCPECGEIFAHSSN [R2A]	3.34
QLTHTGEKPYKCPECGEIFAHSSN [R2L]	3.6
QQTHTGEKPYKCPECGEIFAHSSN [R2Q]	3.3
QCTHTGEKPYKCPECGEIFAHSSN [R2C]	4.86
QPTHTGEKPYKCPECGEIFAHSSN [R2P]	3.77
QMTHTGEKPYKCPECGEIFAHSSN [R2M]	2.62
QRTHTGEKPYKCPECEEIFAHSSN [G16E]	4
QRTHTGEKPYKCPECTEIFAHSSN [G16T]	3.43
QRTHTGEKPYKCPECYEIFAHSSN [G16Y]	3.18
QRTHTGEKPYKCPECWEIFAHSSN [G16W]	2.64
